Experimental findings from paper PMC13033339 are described below.

Assay in all cases: cryo-EM structure; genome-packed Douge virions purified from M. smegmatis lysate (PEG, CsCl gradient), vitrified at 4 °C; capsid, connector-vertex, tail tube, baseplate and central fiber reconstructed separately (2.18-4.26 Å) and joined in a composite map; the proteins stood in the assembled virion
Test [1] addresses adaptor protein, gp9 of mycobacteriophage Douge (mycobacteriophage Douge).
The target in test [2] is baseplate hub protein (BHP), gp18 of mycobacteriophage Douge (mycobacteriophage Douge).
Test [3] concerns the target capsid cement protein (CCP), gp113 of mycobacteriophage Douge (mycobacteriophage Douge).
For test [4], the target named is central fiber protein (CFP), gp20 of mycobacteriophage Douge (mycobacteriophage Douge).
In test [5] the target is distal tail protein (DTP), gp17 of mycobacteriophage Douge (mycobacteriophage Douge).
The target in test [6] is portal protein, gp5 of mycobacteriophage Douge (mycobacteriophage Douge).
For test [7], the target named is stopper protein, gp10 of mycobacteriophage Douge (mycobacteriophage Douge).
Test [8] deals with tail tube protein (TTP), gp13 of mycobacteriophage Douge (mycobacteriophage Douge).
The target in test [9] is tape measure protein (TMP), gp16 of mycobacteriophage Douge (mycobacteriophage Douge).
The target in test [10] is terminator protein, gp12 of mycobacteriophage Douge (mycobacteriophage Douge).

One may read the stoichiometry N as the number of molecules, sites or subunits per partner or assembly. In [1], “adaptor protein, gp9 of mycobacteriophage Douge (natural protein)” came in with a stoichiometry N of 12. Substance “baseplate hub protein (BHP), gp18 of mycobacteriophage Douge (natural protein)” came in with a stoichiometry N in test [2] of 3.

In test [3], “capsid cement protein (CCP), gp113 of mycobacteriophage Douge (natural protein)” returned a stoichiometry N of 2. “central fiber protein (CFP), gp20 of mycobacteriophage Douge (natural protein)” registered a stoichiometry N in test [4] of 3. For the substance “distal tail protein (DTP), gp17 of mycobacteriophage Douge (natural protein)”, in [5], the stoichiometry N was 6. For the substance “portal protein, gp5 of mycobacteriophage Douge (natural protein)”, the stoichiometry N in test [6] was 12. “stopper protein, gp10 of mycobacteriophage Douge (natural protein)” came in with a stoichiometry N in [7] of 6.

“tail tube protein (TTP), gp13 of mycobacteriophage Douge (natural protein)” gave a stoichiometry N in [8] of 6. The substance “tape measure protein (TMP), gp16 of mycobacteriophage Douge (natural protein)” showed a stoichiometry N in test [9] of 3. “terminator protein, gp12 of mycobacteriophage Douge (natural protein)” yielded a stoichiometry N in [10] of 6.
